{
  "source": "patent US20240325445A1",
  "about": "(Regeneron, published 2024)",
  "molecules": {"B1": {"name": "BCMA 16711 VL-VH chimeric antigen receptor (scFv of mAb16711) (scFv)", "chain": "DIQMTQSPSSVSASVGDRVTITCRASRGISSWLAWYQQKPGKAPKLLIHAASSLQSGVPSRFSGSGSGTDFTLTISSLQPEDFATYYCQQAISFPFTFGPGTKVDIKGGGGSGGGGSGGGGSQVQLVESGGGVVQPGRSLRLSCAASGFTFSTYGIHWVRQAPGKGLEWVAVILHDGSSNYYAESVKGRFIISRDNSKNTLYLQMNSLRAEDTALYYCTKRYSEAAGPNWFDPWGQGTLVTVSSTTTPAPRPPTPAPTIASQPLSLRPEACRPAAGGAVHTRGLDFACDIYIWAPLAGTCGVLLLSLVITLYCKRGRKKLLYIFKQPFMRPVQTTQEEDGCSCRFPEEEEGGCELRVKFSRSADAPAYKQGQNQLYNELNLGRREEYDVLDKRRGRDPEMGGKPRRKNPQEGLYNELQKDKMAEAYSEIGMKGERRRGKGHDGLYQGLSTATKDTYDALHMQALPPR", "notes": "3C7 cells; a linker before the hinge or a signal peptide may be present; also called 16711 VL-VH CART; 16711 CAR"}, "B2": {"name": "BCMA 16732 VL-VH chimeric antigen receptor (scFv of mAb16732) (scFv)", "chain": "DIQMTQSPSSLSASVGDRVTITCRTSQSIGNYLNWFQQKPGKAPKLLIYTASSLQNGVPSRFTGSGSGTDFTLTISSLQPEDFVIYYCQQSFSTPYTFGQGTKLEIKGGGGSGGGGSGGGGSEVQLVESGGGLVQPGRSLRLSCAASGFTFDDYAMHWVRQAPGKGLEWVSGISWNSGNMGYADSVKGRFTISRDNAKNSLFLQMHSLRAEDTAFYYCAKVRLTAFDFWGQGTLVTVSSTTTPAPRPPTPAPTIASQPLSLRPEACRPAAGGAVHTRGLDFACDIYIWAPLAGTCGVLLLSLVITLYCKRGRKKLLYIFKQPFMRPVQTTQEEDGCSCRFPEEEEGGCELRVKFSRSADAPAYKQGQNQLYNELNLGRREEYDVLDKRRGRDPEMGGKPRRKNPQEGLYNELQKDKMAEAYSEIGMKGERRRGKGHDGLYQGLSTATKDTYDALHMQALPPR", "notes": "3C7 cells; a linker before the hinge or a signal peptide may be present; also called 16732 VL-VH CART; 16732 CAR"}, "B3": {"name": "BCMA 16747 VL-VH chimeric antigen receptor (scFv of mAb16747) (scFv)", "chain": "DIQMTQSPSSVSASVGDRVTITCRASQGINNWLVWYQQKPGKAPKLLIYAATSLQSGVPSRFSGSGSGTDFTLTISSLQPEDFATYYCQQANSFPPTFGQGTKLEIKGGGGSGGGGSGGGGSQVQLVESGGGLVKPGGSLRLSCAASGFTFSDYYISWIRQAPGKGLEWVSYISSSGSSIKYADSVKGRFTISRDNAKNSLYLQMNSLRAEDTAVYYCAREGGNYGMDVWGQGTTVTVSSTTTPAPRPPTPAPTIASQPLSLRPEACRPAAGGAVHTRGLDFACDIYIWAPLAGTCGVLLLSLVITLYCKRGRKKLLYIFKQPFMRPVQTTQEEDGCSCRFPEEEEGGCELRVKFSRSADAPAYKQGQNQLYNELNLGRREEYDVLDKRRGRDPEMGGKPRRKNPQEGLYNELQKDKMAEAYSEIGMKGERRRGKGHDGLYQGLSTATKDTYDALHMQALPPR", "notes": "a linker before the hinge or a signal peptide may be present"}},
  "key": {"[1]": {"molecular_target": "human B-cell maturation antigen (BCMA) on cells (human) (UniProt Q02223)", "test": "cell-based or functional assay"}, "[2]": {"molecular_target": "T1, BCMA extracellular domain fused to an hIgG1-Fc (human, UniProt Q02223 1-54)", "T1 construct": "also called BCMA ecto-hFc; BCMA-hFc; not shown: human IgG1 Fc", "T1 sequence": "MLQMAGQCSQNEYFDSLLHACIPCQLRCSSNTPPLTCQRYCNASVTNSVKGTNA", "test": "flow cytometry; 10 ug/ml BCMA ecto-hFc on Jurkat/NFATLuc cells carrying the CAR, Alexa 647 secondary antibody", "description": "Relative cell surface expression of the BCMA CAR constructs in Jurkat/NFATLuc cells was accessed by flow cytometry. […] Cells were then washed and fixed using a 50% solution of BD Cytofix (BD, Cat #554655) diluted in staining buffer. Samples were run on the Intellicyt iQue flow cytometer and analyzed by FlowJo 10.2 to calculate the mean fluorescent intensity (MFI). The signal to noise ratio (S:N) is determined by taking the ratio of the BCMA-hFc or Fc isotype control MFI to the secondary antibody alone MFI."}, "[3]": {"molecular_target": "irrelevant protein fused to hIgG1-Fc (human)", "test": "flow cytometry; 10 ug/ml Fc isotype control on Jurkat/NFATLuc cells carrying the CAR, Alexa 647 secondary antibody"}, "[4]": {"molecular_target": "T2, human B-cell maturation antigen (BCMA) on cells (human, UniProt Q02223 1-184)", "T2 sequence": "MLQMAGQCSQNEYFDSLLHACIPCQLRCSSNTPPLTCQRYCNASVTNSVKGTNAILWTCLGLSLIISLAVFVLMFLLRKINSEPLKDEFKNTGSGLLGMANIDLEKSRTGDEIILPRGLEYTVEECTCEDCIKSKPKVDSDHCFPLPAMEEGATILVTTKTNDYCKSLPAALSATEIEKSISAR", "test": "cell-based or functional assay"}, "[5]": {"molecular_target": "T2, human B-cell maturation antigen (BCMA) …", "test": "cell-based or functional assay", "remark": "listed apart in the source"}},
  "data": [
    {"molecule": "control chimeric antigen receptor with an irrelevant scFv (17363)", "values": [
      {"measurement": "percent cytotoxicity (calcein release), H929 target cells, T effector:target ratio 50, mean", "setting": "[1]", "value": -0.8, "unit": "%"},
      {"measurement": "percent cytotoxicity (calcein release), MOLP8 target cells, T effector:target ratio 50, mean", "setting": "[1]", "value": -3.1, "unit": "%"}
    ]},
    {"molecule": "B1", "values": [
      {"measurement": "S:N (BCMA-hFc)", "setting": "[2]", "value": "3.7 ratio of MFI to secondary antibody alone"},
      {"measurement": "S:N (Isotype-hFc) (ratio of MFI to secondary antibody alone)", "setting": "[3]", "value": 1.2},
      {"measurement": "CAR-T Max Activity (NFAT-luciferase, S:N), APC Daudi", "setting": "[4]", "value": "2.6 S:N (highest RLU / lowest RLU)"},
      {"measurement": "CAR-T Max Activity (NFAT-luciferase, S:N), APC RAJI", "setting": "[4]", "value": "7.9 S:N (highest RLU / lowest RLU)"},
      {"measurement": "CAR-T Max Activity (NFAT-luciferase, S:N), APC RPMI8226", "setting": "[4]", "value": "1.8 S:N (highest RLU / lowest RLU)"}
    ]},
    {"molecule": "B2", "values": [
      {"measurement": "S:N (BCMA-hFc)", "setting": "[2]", "value": "13.1 ratio of MFI to secondary antibody alone"},
      {"measurement": "S:N (Isotype-hFc) (ratio of MFI to secondary antibody alone)", "setting": "[3]", "value": 1},
      {"measurement": "CAR-T Max Activity (NFAT-luciferase, S:N), APC Daudi", "setting": "[4]", "value": "4.9 S:N (highest RLU / lowest RLU)"},
      {"measurement": "CAR-T Max Activity (NFAT-luciferase, S:N), APC RAJI", "setting": "[4]", "value": "16.8 S:N (highest RLU / lowest RLU)"},
      {"measurement": "CAR-T Max Activity (NFAT-luciferase, S:N), APC RPMI8226", "setting": "[4]", "value": "5.2 S:N (highest RLU / lowest RLU)"}
    ]},
    {"molecule": "B3", "values": [
      {"measurement": "S:N (BCMA-hFc)", "setting": "[2]", "value": "209 ratio of MFI to secondary antibody alone"},
      {"measurement": "percent cytotoxicity (calcein release), H929 target cells, T effector:target ratio 0.78, mean", "setting": "[5]", "value": 0.9, "unit": "%"},
      {"measurement": "percent cytotoxicity (calcein release), H929 target cells, T effector:target ratio 1.56, mean", "setting": "[5]", "value": 1.8, "unit": "%"},
      {"measurement": "percent cytotoxicity (calcein release), H929 target cells, T effector:target ratio 3.13, mean", "setting": "[5]", "value": 2.9, "unit": "%"},
      {"measurement": "percent cytotoxicity (calcein release), H929 target cells, T effector:target ratio 6.25, mean", "setting": "[5]", "value": 4.2, "unit": "%"},
      {"measurement": "percent cytotoxicity (calcein release), H929 target cells, T effector:target ratio 12.5, mean", "setting": "[5]", "value": 9.3, "unit": "%"},
      {"measurement": "percent cytotoxicity (calcein release), H929 target cells, T effector:target ratio 25, mean", "setting": "[5]", "value": 19.4, "unit": "%"},
      {"measurement": "percent cytotoxicity (calcein release), H929 target cells, T effector:target ratio 50, mean", "setting": "[5]", "value": 29.3, "unit": "%"},
      {"measurement": "percent cytotoxicity (calcein release), MOLP8 target cells, T effector:target ratio 0.78, mean", "setting": "[5]", "value": -2.9, "unit": "%"},
      {"measurement": "percent cytotoxicity (calcein release), MOLP8 target cells, T effector:target ratio 1.56, mean", "setting": "[5]", "value": 0.2, "unit": "%"},
      {"measurement": "percent cytotoxicity (calcein release), MOLP8 target cells, T effector:target ratio 3.13, mean", "setting": "[5]", "value": 2.2, "unit": "%"},
      {"measurement": "percent cytotoxicity (calcein release), MOLP8 target cells, T effector:target ratio 6.25, mean", "setting": "[5]", "value": 5.8, "unit": "%"},
      {"measurement": "percent cytotoxicity (calcein release), MOLP8 target cells, T effector:target ratio 12.5, mean", "setting": "[5]", "value": 8.2, "unit": "%"},
      {"measurement": "percent cytotoxicity (calcein release), MOLP8 target cells, T effector:target ratio 25, mean", "setting": "[5]", "value": 10.9, "unit": "%"},
      {"measurement": "percent cytotoxicity (calcein release), MOLP8 target cells, T effector:target ratio 50, mean", "setting": "[5]", "value": 14, "unit": "%"},
      {"measurement": "S:N (Isotype-hFc) (ratio of MFI to secondary antibody alone)", "setting": "[3]", "value": 1.3},
      {"measurement": "CAR-T Max Activity (NFAT-luciferase, S:N), APC Daudi", "setting": "[4]", "value": "14 S:N (highest RLU / lowest RLU)"},
      {"measurement": "CAR-T Max Activity (NFAT-luciferase, S:N), APC RAJI", "setting": "[4]", "value": "38.9 S:N (highest RLU / lowest RLU)"},
      {"measurement": "CAR-T Max Activity (NFAT-luciferase, S:N), APC RPMI8226", "setting": "[4]", "value": "12.5 S:N (highest RLU / lowest RLU)"}
    ]}
  ]
}
